From publication PMC12138128, “Thermal proteome profiling (TPP) reveals NAMPT as the anti-glioma target of phenanthroindolizidine alkaloid PF403” (Acta Pharmaceutica Sinica. B, 2025) come the findings set out here.

This series concerns the molecule itself. Put plainly: crystal structure; cocrystal of recombinant NAMPT with the small molecule PF403, hanging drop vapor diffusion, 1.86 Å; NAMPT seen as a dimer with two PF403 molecules.

B1: nicotinamide phosphoribosyl transferase (NAMPT), recombinant, His-tagged (enzyme, human)
chain: MNPAAEAEFNILLATDSYKVTHYKQYPPNTSKVYSYFECREKKTENSKLRKVKYEETVFYGLQYILNKYLKGKVVTKEKIQEAKDVYKEHFQDDVFNEKGWNYILEKYDGHLPIEIKAVPEGFVIPRGNVLFTVENTDPECYWLTNWIETILVQSWYPITVATNSREQKKILAKYLLETSGNLDGLEYKLHDFGYRGVSSQETAGIGASAHLVNFKGTDTVAGLALIKKYYGTKDPVPGYSVPAAEHSTITAWGKDHEKDAFEHIVTQFSSVPVSVVSDSYDIYNACEKIWGEDLRHLIVSRSTQAPLIIRPDSGNPLDTVLKVLEILGKKFPVTENSKGYKLLPPYLRVIQGDGVDINTLQEIVEGMKQKMWSIENIAFGSGGGLLQKLTRDLLNCSFKCSYVVTNGLGINVFKDPVADPNKRSKKGRLSLHRTPAGNFVTLEEGKGDLEEYGQDLLHTVFKNGKVTKSYSFDEIRKNAQLNIELEAAHH
notes: nicotinamide phosphoribosyl transferase (NAMPT), human; Dimer in the cocrystal structure with the small molecule PF403 (PDB 8Y55); also called recombinant NAMPT; WT NAMPT; source: E. coli BL21 (DE3), pET-28a(+), purified (Ni-NTA)
In the case of B1, the binding result was “binds”.
